B1: 21988 (protein)
chain: MALPVTALLLPLALLLHAARPEVQLLESGGGLVQPGGSLRLSCAASGFTFSSYAMSWVRQAPGKGLEWVSSISGSGDYIYYADSVKGRFTISRDISKNTLYLQMNSLRAEDTAVYYCAKEGTGANSSLADYRGQGTLVTVSSLEDLKNVFPPEVAVFEPSEAEISHTQKATLVCLATGFYPDHVELSWWVNGKEVHSGVCTDPQPLKEQPALNDSRYCLSSRLRVSATFWQNPRNHFRCQVQFYGLSENDEWTQDRAKPVTQIVSAEAWGRADCGFTSESYQQGVLSATILYEILLGKATLYAVLVSALVLMAMVKRKDSRGRAKRSGSGATNFSLLKQAGDVEENPGPTSMDWIWRILFLVGAATGAHSFEVQLLESGGGLIQPGGSLRLSCAASGFTFSSHAMTWVRQAPGKGLEWVSAISGSGDYTHYADSVKGRFTISRDNSKNTVYLQMNSLRAEDSAVYYCAKDEDGGSLLGHRGQGTLVTVSSTRIQNPDPAVYQLRDSKSSDKSVCLFTDFDSQTNVSQSKDSDVYITDKCVLDMRSMDFKSNSAVAWSNKSDFACANAFNNSIIPEDTFFPSPESSCDVKLVEKSFETDTNLNFQNLSVIGFRILLLKVAGFNLLMTLRLWSSRAKRSGSGVKQTLNFDLLKLAGDVESNPGPSRGHMTEYKPTVRLATRDDVPRAVRTLAAAFADYPATRHTVDPDRHIERVTELQELFLTRVGLDIGKVWVADDGAAVAVWTTPESVEAGAVFAEIGPRMAELSGSRLAAQQQMEGLLAPHRPKEPAWFLATVGVSPDHQGKGLGSAVVLPGVEAAERAGVPAFLETSAPRNLPFYERLGFTVTADVEVPEGPRTWCMTRKPGA
B2: 22061 (protein)
chain: MALPVTALLLPLALLLHAARPQVQLVESGGGLVQPGGSLRLSCAASGFTFTNHAMSWVRQAPGKGLELVSSISGNGRTTYYADSVKGRFTISRDISKNTLDLQMNSLRAEDTAVYYCAKDGGETLVDSRGQGTLVTVSSLEGSGGGGSGGGGSGEDLKNVFPPEVAVFEPSEAEISHTQKATLVCLATGFYPDHVELSWWVNGKEVHSGVCTDPQPLKEQPALNDSRYCLSSRLRVSATFWQNPRNHFRCQVQFYGLSENDEWTQDRAKPVTQIVSAEAWGRADCGFTSESYQQGVLSATILYEILLGKATLYAVLVSALVLMAMVKRKDSRGRAKRSGSGATNFSLLKQAGDVEENPGPTSMDWIWRILFLVGAATGAHSFEEVQLLESGGGLVQPGGSLRLSCAASGFTFSSYAMSWVRQAPGKGLEWVSSISGSGDYIYYADSVKGRFTISRDISKNTLYLQMNSLRAEDTAVYYCAKEGTGANSSLADYRGQGTLVTVSSTRIQNPDPAVYQLRDSKSSDKSVCLFTDFDSQTNVSQSKDSDVYITDKCVLDMRSMDFKSNSAVAWSNKSDFACANAFNNSIIPEDTFFPSPESSCDVKLVEKSFETDTNLNFQNLSVIGFRILLLKVAGFNLLMTLRLWSSRAKRSGSGVKQTLNFDLLKLAGDVESNPGPSRGHMTEYKPTVRLATRDDVPRAVRTLAAAFADYPATRHTVDPDRHIERVTELQELFLTRVGLDIGKVWVADDGAAVAVWTTPESVEAGAVFAEIGPRMAELSGSRLAAQQQMEGLLAPHRPKEPAWFLATVGVSPDHQGKGLGSAVVLPGVEAAERAGVPAFLETSAPRNLPFYERLGFTVTADVEVPEGPRTWCMTRKPGA
B3: 21989 (protein)
chain: MALPVTALLLPLALLLHAARPQVQLVESGGGLVQPGGSLRLSCAASGFTFTNHAMSWVRQAPGKGLELVSSISGNGRTTYYADSVKGRFTISRDISKNTLDLQMNSLRAEDTAVYYCAKDGGETLVDSRGQGTLVTVSSLEDLKNVFPPEVAVFEPSEAEISHTQKATLVCLATGFYPDHVELSWWVNGKEVHSGVCTDPQPLKEQPALNDSRYCLSSRLRVSATFWQNPRNHFRCQVQFYGLSENDEWTQDRAKPVTQIVSAEAWGRADCGFTSESYQQGVLSATILYEILLGKATLYAVLVSALVLMAMVKRKDSRGRAKRSGSGATNFSLLKQAGDVEENPGPTSMDWIWRILFLVGAATGAHSFEEVQLLESGGGLVQPGGSLRLSCAASGFTFSSYAMSWVRQAPGKGLEWVSSISGSGDYIYYADSVKGRFTISRDISKNTLYLQMNSLRAEDTAVYYCAKEGTGANSSLADYRGQGTLVTVSSTRIQNPDPAVYQLRDSKSSDKSVCLFTDFDSQTNVSQSKDSDVYITDKCVLDMRSMDFKSNSAVAWSNKSDFACANAFNNSIIPEDTFFPSPESSCDVKLVEKSFETDTNLNFQNLSVIGFRILLLKVAGFNLLMTLRLWSSRAKRSGSGVKQTLNFDLLKLAGDVESNPGPSRGHMTEYKPTVRLATRDDVPRAVRTLAAAFADYPATRHTVDPDRHIERVTELQELFLTRVGLDIGKVWVADDGAAVAVWTTPESVEAGAVFAEIGPRMAELSGSRLAAQQQMEGLLAPHRPKEPAWFLATVGVSPDHQGKGLGSAVVLPGVEAAERAGVPAFLETSAPRNLPFYERLGFTVTADVEVPEGPRTWCMTRKPGA
B4: 22062 (protein)
chain: MALPVTALLLPLALLLHAARPQVQLVESGGGLVQPGGSLRLSCAASGFTFTNHAMSWVRQAPGKGLELVSSISGNGRTTYYADSVKGRFTISRDISKNTLDLQMNSLRAEDTAVYYCAKDGGETLVDSRGQGTLVTVSSLEVAALEREDLKNVFPPEVAVFEPSEAEISHTQKATLVCLATGFYPDHVELSWWVNGKEVHSGVCTDPQPLKEQPALNDSRYCLSSRLRVSATFWQNPRNHFRCQVQFYGLSENDEWTQDRAKPVTQIVSAEAWGRADCGFTSESYQQGVLSATILYEILLGKATLYAVLVSALVLMAMVKRKDSRGRAKRSGSGATNFSLLKQAGDVEENPGPTSMDWIWRILFLVGAATGAHSFEEVQLLESGGGLVQPGGSLRLSCAASGFTFSSYAMSWVRQAPGKGLEWVSSISGSGDYIYYADSVKGRFTISRDISKNTLYLQMNSLRAEDTAVYYCAKEGTGANSSLADYRGQGTLVTVSSTRIQNPDPAVYQLRDSKSSDKSVCLFTDFDSQTNVSQSKDSDVYITDKCVLDMRSMDFKSNSAVAWSNKSDFACANAFNNSIIPEDTFFPSPESSCDVKLVEKSFETDTNLNFQNLSVIGFRILLLKVAGFNLLMTLRLWSSRAKRSGSGVKQTLNFDLLKLAGDVESNPGPSRGHMTEYKPTVRLATRDDVPRAVRTLAAAFADYPATRHTVDPDRHIERVTELQELFLTRVGLDIGKVWVADDGAAVAVWTTPESVEAGAVFAEIGPRMAELSGSRLAAQQQMEGLLAPHRPKEPAWFLATVGVSPDHQGKGLGSAVVLPGVEAAERAGVPAFLETSAPRNLPFYERLGFTVTADVEVPEGPRTWCMTRKPGA
B5: 22016 (protein)
chain: MDWIWRILFLVGAATGAHSQLQLQESGPGLVKPSETLSLTCTVSGGSVSSSSYYWGWIRQPPGKRLELIGSIYYGGSTYFNPSLKTRVTISVDTSKNQFSLKLSSVTAADTAVYYCAGGDTYGPVGQWPSDYRGQGTLVTVSSLEDLKNVFPPEVAVFEPSEAEISHTQKATLVCLATGFYPDHVELSWWVNGKEVHSGVCTDPQPLKEQPALNDSRYCLSSRLRVSATFWQNPRNHFRCQVQFYGLSENDEWTQDRAKPVTQIVSAEAWGRADCGFTSESYQQGVLSATILYEILLGKATLYAVLVSALVLMAMVKRKDSRGRAKRSGSGATNFSLLKQAGDVEENPGPTSMDWIWRILFLVGAATGAHSFEQVQLVESGGGLVQPGGSLRLSCAASGFTFTNHAMSWVRQAPGKGLELVSSISGNGRTTYYADSVKGRFTISRDISKNTLDLQMNSLRAEDTAVYYCAKDGGETLVDSRGQGTLVTVSSTRIQNPDPAVYQLRDSKSSDKSVCLFTDFDSQTNVSQSKDSDVYITDKCVLDMRSMDFKSNSAVAWSNKSDFACANAFNNSIIPEDTFFPSPESSCDVKLVEKSFETDTNLNFQNLSVIGFRILLLKVAGFNLLMTLRLWSSRAKRSGSGVKQTLNFDLLKLAGDVESNPGPSRGHMTEYKPTVRLATRDDVPRAVRTLAAAFADYPATRHTVDPDRHIERVTELQELFLTRVGLDIGKVWVADDGAAVAVWTTPESVEAGAVFAEIGPRMAELSGSRLAAQQQMEGLLAPHRPKEPAWFLATVGVSPDHQGKGLGSAVVLPGVEAAERAGVPAFLETSAPRNLPFYERLGFTVTADVEVPEGPRTWCMTRKPGA

The assay deals with L363 cells. The experiment in a line: JNG assay, co-culture with L363 cells. The format is cell-based. To be noted: co-culture with L363. On the procedure: Cellular supernatant is collected and assayed for the induction of cytokines (e.g., IL2).
JNG (Jurkat cells expressing EGFP under an NFAT promoter) were infected with lentiviral vectors encoding different single chain and multi-chain SARs by spinfection in the presence of 8 µg/ml of Polybrene® (Sigma, Catalog no. H9268). The Jurkat-NFAT-GFP cells are engineered in such a way that the IL-2 promoter, which carries NFAT binding sites, is cloned upstream of the GFP gene. These cells have been used to study signaling via TCR and CAR. The different SARs were stably expressed in Jurkat NFAT-GFP cells by lentiviral mediated gene transfer, followed by selection with puromycin or blasticidin. No drug selection was used in case the construct lacked an antibiotic resistance gene. The SAR-expressing Jurkat-NFAT-GFP cells were cocultured with the target cells at E:T ratio of approximately 1:2 for approximately 4 hours to 18 hours. When the interaction between SIRs and their target antigen results in activation of the NFAT pathway, GFP expression is induced. […] GFP expression was monitored by FACS analysis. The Jurkat-NFAT-GFP (parental) cells were used as control. The structure of different constructs can be determined based on their names. […] The sequence of the other constructs in the table can be similarly determined from their names and by referring to the different Tables of this disclosure that provide the names and SEQ ID NO of the different modules. Alternatively, the composition and modular architecture of the different SAR constructs can be determined from their sequences by bioinformatics tools, including using nucleic acid and amino acids homology searches. A SAR is considered positive in the assay in case the SAR expressing Jurkat-NFAT-GFP cells show greater % GFP positive cells when cultured with the target cell line as compared to parental Jurkat-NFAT-GFP cells. […] In general, the number +/-, +, 2+, 3+, 4+, 5+ refer to approximately 5%, 10%, 20%, 30%, 40% and 50% GFP positive cells. The % of GFP induction in the above assay is dependent not only the relative strength of the SAR but also, among other factors, on the relative level of expression of the SAR in the JNG cells and the relative level of expression of the target antigen in the target cell line. To control for the difference in gene transduction efficiency of the different SAR constructs, the experiment was conducted with JNG cells transduced with SAR constructs co-expressing a drug resistance gene (e.g., puromycin or PAC) followed by drug selection to generate a stable population of SAR-expressing cells. It is to be noted that the drug resistance gene (e.g., PAC) in the SAR constructs is optional and in vivo studies were conducted with SAR constructs lacking the PAC gene.
For the molecule B1, the “NFAT-GFP ASSAY: L363” value is “+ (refer to approximately 5%, 10%, 20%, 30%, 40% and 50% GFP positive cells)”. Next, B2: “L363 (2+) (refer to approximately 5%, 10%, 20%, 30%, 40% and 50% GFP positive cells)”.

As to B3, the “NFAT-GFP ASSAY: L363” value is “+ (refer to approximately 5%, 10%, 20%, 30%, 40% and 50% GFP positive cells)”. As for B4, the “NFAT-GFP ASSAY: L363” value was “L363 (+/-) (refer to approximately 5%, 10%, 20%, 30%, 40% and 50% GFP positive cells)”. The result for B5 reads “+/- (refer to approximately 5%, 10%, 20%, 30%, 40% and 50% GFP positive cells)”.

Values taken from US20230212319A1, “NOVEL ANTIGEN BINDING DOMAINS AND SYNTHETIC ANTIGEN RECEPTORS INCORPORATING THE SAME” (University of Southern California, priority 2020, published 2023).
